B1: NS19FAM duplex (dsDNA)
DNA 1: GCTCTGTACATGAGCAGTG
DNA 2: CACTGCTCATGTACAGAGC

Molecular target: hUNG2 N-terminal domain (NTD) (Homo sapiens, UniProt P13051 1-92)
Assay: fluorescence anisotropy

Chain of hUNG2 N-terminal domain (NTD) (P13051 1-92): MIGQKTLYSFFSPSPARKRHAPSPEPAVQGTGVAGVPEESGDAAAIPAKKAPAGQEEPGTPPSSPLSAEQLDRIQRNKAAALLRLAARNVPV

| Binder | Kd [µM] |
| --- | --- |
| B1 | 10 |
| GCTCTGTACATGAGCAGTG (ssDNA) [NS19FAM ssDNA] | 23 |

Source: PMC6990647
